From patent publication WO2010108824A1 (dated 2010) come the findings set out here.

B1: human L-plastin (other, UniProt P13796 2-627, looked up)
chain: ARGSVSDEEMMELREAFAKVDTDGNGYISFNELNDLFKAACLPLPGYRVREITENLMATGDLDQDGRISFDEFIKIFHGLKSTDVAKTFRKAINKKEGICAIGGTSEQSSVGTQHSYSEEEKYAFVNWINKALENDPDCRHVIPMNPNTNDLFNAVGDGIVLCKMINLSVPDTIDERTINKKKLTPFTIQENLNLALNSASAIGCHVVNIGAEDLKEGKPYLVLGLLWQVIKIGLFADIELSRNEALIALLREGESLEDLMKLSPEELLLRWANYHLENAGCNKIGNFSTDIKDSKAYYHLLEQVAPKGDEEGVPAVVIDMSGLREKDDIQRAECMLQQAERLGCRQFVTATDVVRGNPKLNLAFIANLFNRYPALHKPENQDIDWGALEGETREERTFRNWMNSLGVNPRVNHLYSDLSDALVIFQLYEKIKVPVDWNRVNKPPYPKLGGNMKKLENCNYAVELGKNQAKFSLVGIGGQDLNEGNRTLTLALIWQLMRRYTLNILEEIGGGQKVNDDIIVNWVNETLREAKKSSSISSFKDPKISTSLPVLDLIDAIQPGSINYDLLKTENLNDDEKLNNAKYAISMARKIGARVYALPEDLVEVNPKMVMTVFACLMGKGMKRV
notes: mature; the assay field says which; also called L-fimbrin; endogenous L-plastin

Data set [1] deals with the molecule itself. The data set is described as follows: Superdex 200 HR gel filtration of L-plastin alone.
The data set “human L-plastin” has as its target B1. The data set is described as follows: ITC, L-plastin titrated with His6-tagged nanobody.
In a further data set the target is T1, GST-ABD1+2 of L-plastin (human, UniProt P13796 106-627).
T1 construct: domain: ABD1+2; also called both ABDs combined; combination of the two ABDs; not shown: glutathione S-transferase tag of vector pGEX-2T
T1 sequence (looked up): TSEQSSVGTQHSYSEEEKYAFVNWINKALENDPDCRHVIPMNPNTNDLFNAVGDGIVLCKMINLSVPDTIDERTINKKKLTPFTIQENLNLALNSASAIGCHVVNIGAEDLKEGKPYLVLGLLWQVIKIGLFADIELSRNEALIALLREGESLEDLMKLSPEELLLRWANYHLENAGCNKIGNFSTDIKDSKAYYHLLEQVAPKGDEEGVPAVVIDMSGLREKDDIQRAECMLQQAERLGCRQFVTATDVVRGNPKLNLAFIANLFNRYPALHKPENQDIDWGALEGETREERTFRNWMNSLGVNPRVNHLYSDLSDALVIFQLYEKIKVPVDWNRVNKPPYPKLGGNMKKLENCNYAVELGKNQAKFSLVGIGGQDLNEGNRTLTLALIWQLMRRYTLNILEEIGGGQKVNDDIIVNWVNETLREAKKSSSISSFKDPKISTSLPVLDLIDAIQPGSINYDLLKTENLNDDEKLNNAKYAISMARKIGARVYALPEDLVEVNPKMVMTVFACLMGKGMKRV
The data set can be described thus: ITC, nanobody with GST-tagged L-plastin domain.

For the molecule B1, the binding result in data set [1] is “binds”.

B2: L-plastin nanobody 5 (VHH)
VHH: QVQLQESGGGLVQAGDSLRLSCAVSGGTFGRVGVGWFRRAPGKEREFVAAVNWSGISTFYADSVKGRFTISRDDNKHTVDLRMNSLKPEDSAVYFCATDFRFNVPMNGTEYDYWGQGTQVTVSS
notes: Alpaca VHH; His6-tagged recombinant protein (pHEN6c, E. coli) in ITC, gel filtration, pull-down, cross-linking and co-sedimentation; V5-tagged, MOM-V5-tagged or GFP-fused when expressed in PC-3 cells; also called Nb 5; Nb5
Take B2: the Kd with human L-plastin is roughly 0.04 µM; with GST-ABD1+2 of L-plastin, 0.0465 µM.
